Reference: patent US20250026849A1 (ARCELLX, published 2025)

T1: CD123 (Homo sapiens (Human), UniProt P26951 19-305, limits assumed)
T1 construct: The CD123 construct used in the ELISA is not described; also called CD123-Signal
T1 sequence: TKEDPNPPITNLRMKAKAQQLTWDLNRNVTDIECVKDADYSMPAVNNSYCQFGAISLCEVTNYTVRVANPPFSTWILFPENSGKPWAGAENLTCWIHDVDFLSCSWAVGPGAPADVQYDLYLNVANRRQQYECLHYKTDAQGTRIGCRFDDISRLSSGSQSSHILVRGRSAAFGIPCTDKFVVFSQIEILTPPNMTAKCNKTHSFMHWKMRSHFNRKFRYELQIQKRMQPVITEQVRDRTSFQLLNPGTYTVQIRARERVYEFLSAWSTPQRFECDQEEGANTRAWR


Target: T1, CD123
Assay: ELISA
Set-up: unit not given here

ELISA_avg	Binder
4.6	D domain of SEQ ID NO: 367 (designed binder) MGSWDEFAWRLDVIFARLGALGGSEAELAAFEKEIAAFESELQAYKGKGNPEVEELRKNAAQIRDGLQAYRHN
5.9	D domain of SEQ ID NO: 394 (designed binder) MGSWDEFEQRLIAIEERLFALGGSEAELAAFEKEIAAFESELQAYKGKGNPEVEWLREEAAVIRKYLQAYRHN
3.3	D domain of SEQ ID NO: 398 (designed binder) MGSWHEFDQRLWAIEERLWALGGSEAELAAFEKEIAAFESELQAYKGKGNPEVETLRLYAALIRHDLQAYRHN
5.3	D domain of SEQ ID NO: 395 (designed binder) MGSWVEFDQRLGAIWDRLVALGGSEAELAAFEKEIAAFESELQAYKGKGNPEVEHLRQGAAVIRDDLQAYRHN
3.9	D domain of SEQ ID NO: 408 (designed binder) MGSWYEFSNRLDAIGERLWALGGSEAELAAFEKEIAAFESELQAYKGKGNPEVEILRHQAAEIRWFLQAYRHN
7.2	D domain of SEQ ID NO: 368 (designed binder) MGSWDEFYYRLEAIEMRLGALGGSEAELAAFEKEIAAFESELQAYKGKGNPEVEELRHYAAQIRHMLQAYRHN
18.6	D domain of SEQ ID NO: 369 (designed binder) MGSWEEFYDRLEAIYNRLGALGGSEAELAAFEKEIAAFESELQAYKGKGNPEVEVLREYAADIREMLQAYRHN
11.4	D domain of SEQ ID NO: 436 (designed binder) MGSWSEFNMRLDAIYERLTALGGSEAELAAFEKEIAAFESELQAYKGKGNPEVEWLRHSAALIRLELQAYRHN
13.1	D domain of SEQ ID NO: 462 (designed binder) MGSWFEFYMRLDAIYDRLTALGGSEAELAAFEKEIAAFESELQAYKGKGNPEVERLRTFAANIRKELQAYRHN
11.4	D domain of SEQ ID NO: 437 (designed binder) MGSWIEFNMRLDAIYERLVALGGSEAELAAFEKEIAAFESELQAYKGKGNPEVEWLRKVAANIRLELQAYRHN
17.7	D domain of SEQ ID NO: 454 (designed binder) MGSWNEFAWRLDAIYSRLAALGGSEAELAAFEKEIAAFESELQAYKGKGNPEVEWLRVAAANIRYELQAYRHN
14.4	D domain of SEQ ID NO: 441 (designed binder) MGSWVEFYTRLDAIYGRLDALGGSEAELAAFEKEIAAFESELQAYKGKGNPEVEWLRQVAANIRMELQAYRHN
25.3	D domain of SEQ ID NO: 448 (designed binder) MGSWVEFEMRLDAIVGRLYALGGSEAELAAFEKEIAAFESELQAYKGKGNPEVEKLRRWAANIRSELQAYRHN
14.4	D domain of SEQ ID NO: 446 (designed binder) MGSWSEFHVRLDAIYARLDALGGSEAELAAFEKEIAAFESELQAYKGKGNPEVERLREWAANIRRELQAYRHN
13.6	D domain of SEQ ID NO: 461 (designed binder) MGSWFEFYDRLDAIYMRLIALGGSEAELAAFEKEIAAFESELQAYKGKGNPEVEVLRRYAANIRAELQAYRHN
16.1	D domain of SEQ ID NO: 457 (designed binder) MGSWVEFYIRLDAIYVRLMALGGSEAELAAFEKEIAAFESELQAYKGKGNPEVEKLRSYAANIRQELQAYRHN
24.9	D domain of SEQ ID NO: 463 (designed binder) MGSWYEFDYRLDAIYDRLAALGGSEAELAAFEKEIAAFESELQAYKGKGNPEVERLRKWAANIREELQAYRHN
15.1	D domain of SEQ ID NO: 456 (designed binder) MGSWVEFSIRLDAIYTRLVALGGSEAELAAFEKEIAAFESELQAYKGKGNPEVEMLRKGAANIRKELQAYRHN
15.3	D domain of SEQ ID NO: 439 (designed binder) MGSWYEFAKRLDAIYERLVALGGSEAELAAFEKEIAAFESELQAYKGKGNPEVEWLRSSAANIREELQAYRHN
17	D domain of SEQ ID NO: 459 (designed binder) MGSWVEFIYRLDAIYDRLEALGGSEAELAAFEKEIAAFESELQAYKGKGNPEVEVLRRYAANIRNELQAYRHN
16.1	D domain of SEQ ID NO: 455 (designed binder) MGSWTEFAWRLDAIYDRLLALGGSEAELAAFEKEIAAFESELQAYKGKGNPEVEWLRHVAANIRRELQAYRHN
13.4	D domain of SEQ ID NO: 449 (designed binder) MGSWVEFNIRLDAIYERLYALGGSEAELAAFEKEIAAFESELQAYKGKGNPEVEKLRHWAASIRRELQAYRHN

ELISA_avg	Binder
15.6	D domain of SEQ ID NO: 450 (designed binder) MGSWHEFGVRLDAIYDRLMALGGSEAELAAFEKEIAAFESELQAYKGKGNPEVEFLRQAAANIRSELQAYRHN
15.7	D domain of SEQ ID NO: 464 (designed binder) MGSWSEFYLRLDAIYDRLDALGGSEAELAAFEKEIAAFESELQAYKGKGNPEVEWLRKTAANIREELQAYRHN
25.5	D domain of SEQ ID NO: 443 (designed binder) MGSWYEFAIRLDAIYERLHALGGSEAELAAFEKEIAAFESELQAYKGKGNPEVEYLRVWAANIRTELQAYRHN
17.5	D domain of SEQ ID NO: 447 (designed binder) MGSWVEFHLRLDAIYGRLMALGGSEAELAAFEKEIAAFESELQAYKGKGNPEVENLRVWAANIRNELQAYRHN
14.4	D domain of SEQ ID NO: 451 (designed binder) MGSWTEFNLRLDAIYDRLMALGGSEAELAAFEKEIAAFESELQAYKGKGNPEVEWLRASAAAIRVELQAYRHN
16	D domain of SEQ ID NO: 440 (designed binder) MGSWTEFYVRLDAIYERLDALGGSEAELAAFEKEIAAFESELQAYKGKGNPEVEWLRMVAANIRTELQAYRHN
16.6	D domain of SEQ ID NO: 444 (designed binder) MGSWNEFVIRLDAIYERLLALGGSEAELAAFEKEIAAFESELQAYKGKGNPEVEYLRMAAANIRMELQAYRHN
20.8	D domain of SEQ ID NO: 460 (designed binder) MGSWIEFEVRLDAIYNRLAALGGSEAELAAFEKEIAAFESELQAYKGKGNPEVERLRRYAANIRHELQAYRHN
13	D domain of SEQ ID NO: 458 (designed binder) MGSWYEFSMRLDAIYDRLMALGGSEAELAAFEKEIAAFESELQAYKGKGNPEVEQLRGYAANIRNELQAYRHN
19.3	D domain of SEQ ID NO: 452 (designed binder) MGSWTEFNLRLDAIYGRLSALGGSEAELAAFEKEIAAFESELQAYKGKGNPEVEFLRAAAANIRVELQAYRHN
11.9	D domain of SEQ ID NO: 438 (designed binder) MGSWYEFHHRLDAIYERLLALGGSEAELAAFEKEIAAFESELQAYKGKGNPEVEWLRSSAANIRKELQAYRHN
14.7	D domain of SEQ ID NO: 445 (designed binder) MGSWSEFYVRVDAIYARLSALGGSEAELAAFEKEIAAFESELQAYKGKGNPEVEKLRVWAANIRHELQAYRHN
9.3	D domain of SEQ ID NO: 453 (designed binder) MGSWVEFNWRLDAIYDRLVALGGSEAELAAFEKEIAAFESELQAYKGKGNPEVEWLRVSAAKIRGELQAYRHN
6.9	D domain of SEQ ID NO: 406 (designed binder) MGSWFEFNYRLGAIEDRLWALGGSEAELAAFEKEIAAFESELQAYKGKGNPEVEMLRQIAAEIREFLQAYRHN
3.6	D domain of SEQ ID NO: 410 (designed binder) MGSWVEFWDRLWAIDYRLFALGGSEAELAAFEKEIAAFESELQAYKGKGNPEVEALRDEAAWIREELQAYRHN
3.5	D domain of SEQ ID NO: 399 (designed binder) MGSWVEFWDRLDAIEGRLWALGGSEAELAAFEKEIAAFESELQAYKGKGNPEVEDLRWLAAEIRADLQAYRHN
5.4	D domain of SEQ ID NO: 409 (designed binder) MGSWYEFWGRLDAIEERLWALGGSEAELAAFEKEIAAFESELQAYKGRGNPEVEMLREDAAEIRGQLQAYRHN
3.9	D domain of SEQ ID NO: 407 (designed binder) MGSWEEFFTRLDAINERLEALGGSEAELAAFEKEIAAFESELQAYKGKGNPEVEMLRYEAAEIRHMLQAYRHN
3.6	D domain of SEQ ID NO: 360 (designed binder) MGSWTEFVWRLEAIWDRLDALGGSEAELAAFEKEIAAFESELQAYKGKGNPEVEVLREDAAVIRHFLQAYRHN
16.9	D domain of SEQ ID NO: 366 (designed binder) MGSWEEFAQRLYAIEWRLYALGGSEAELAAFEKEIAAFESELQAYKGKGNPEVEVLRYVAAQIRYHLQAYRHN
5.8	D domain of SEQ ID NO: 385 (designed binder) MGSWDEFGRRLYAIEWRLYALGGSEAELAAFEKEIAAFESELQAYKGKGNPEVEKLREIAAVIRSNLQAYRHN
